Reference: patent publication US20250099634A1, “METHOD OF TREATING CANCER” (Novartis AG, priority 2023, published 2025)
Where two headings read alike, the source gives them in different places.

Tests used:
[1] = test system: somatostatin receptor-positive tumors, including GEP-NETS; conditions: 1,214 patients; cited from earlier work
progressive GEP-NETs = conditions: cited from earlier work
OATP1B3 = OATP1B3 (Homo sapiens, UniProt Q9NPD5)
[2] = target: P-glycoprotein (efflux transporter) (Homo sapiens, UniProt P08183)
BCRP = BCRP (Homo sapiens, UniProt Q9UNQ0); conditions: not told
OAT1 = OAT1 (Homo sapiens, UniProt Q4U2R8)
OCT2 = OCT2 (Homo sapiens, UniProt O15244)
serum inhibin B = conditions: human, in vivo; cited from earlier work
OATP1B1 = OATP1B1 (Homo sapiens, UniProt Q9Y6L6)
OAT3 = OAT3 (Homo sapiens, UniProt Q8TCC7)
[3] = in vivo; cited from earlier work
OCT1 = OCT1 (Homo sapiens, UniProt O15245)
[4] = All grades, randomized treatment period, Safety Set
[5] = Grade >=3, randomized treatment period, Safety Set
[6] = all grades, randomized treatment period
[7] = most frequent AEs, summary table

Chain of OAT3 (Q8TCC7 whole entry): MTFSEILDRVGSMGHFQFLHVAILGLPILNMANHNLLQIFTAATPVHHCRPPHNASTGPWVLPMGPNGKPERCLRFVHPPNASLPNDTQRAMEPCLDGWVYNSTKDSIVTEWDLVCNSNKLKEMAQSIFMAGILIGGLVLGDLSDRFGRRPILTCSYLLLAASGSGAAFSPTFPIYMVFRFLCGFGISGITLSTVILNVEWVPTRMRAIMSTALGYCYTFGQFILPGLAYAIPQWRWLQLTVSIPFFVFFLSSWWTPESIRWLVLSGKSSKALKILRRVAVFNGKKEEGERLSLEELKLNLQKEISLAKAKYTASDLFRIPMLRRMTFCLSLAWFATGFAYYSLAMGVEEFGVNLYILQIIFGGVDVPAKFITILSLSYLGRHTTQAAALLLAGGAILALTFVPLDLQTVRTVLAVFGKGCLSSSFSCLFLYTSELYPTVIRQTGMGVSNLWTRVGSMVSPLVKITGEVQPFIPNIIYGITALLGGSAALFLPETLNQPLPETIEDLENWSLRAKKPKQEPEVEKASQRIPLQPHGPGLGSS
Chain of OCT1 (O15245 whole entry): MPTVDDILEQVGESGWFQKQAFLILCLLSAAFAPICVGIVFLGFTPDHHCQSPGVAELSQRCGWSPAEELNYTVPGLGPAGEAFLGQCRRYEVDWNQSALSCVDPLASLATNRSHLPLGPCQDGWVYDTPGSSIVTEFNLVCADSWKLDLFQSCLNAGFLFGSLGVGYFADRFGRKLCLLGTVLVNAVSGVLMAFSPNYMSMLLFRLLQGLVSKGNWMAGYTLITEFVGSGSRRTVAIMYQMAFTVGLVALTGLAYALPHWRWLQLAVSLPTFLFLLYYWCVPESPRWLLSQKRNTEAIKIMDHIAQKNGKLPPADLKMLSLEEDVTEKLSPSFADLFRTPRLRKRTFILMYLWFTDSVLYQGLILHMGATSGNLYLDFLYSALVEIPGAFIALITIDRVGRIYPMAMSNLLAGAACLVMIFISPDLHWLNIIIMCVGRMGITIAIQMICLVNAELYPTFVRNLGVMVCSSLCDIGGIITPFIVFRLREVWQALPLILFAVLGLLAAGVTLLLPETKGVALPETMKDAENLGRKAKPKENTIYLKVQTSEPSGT
Chain of OATP1B1 (Q9Y6L6 whole entry): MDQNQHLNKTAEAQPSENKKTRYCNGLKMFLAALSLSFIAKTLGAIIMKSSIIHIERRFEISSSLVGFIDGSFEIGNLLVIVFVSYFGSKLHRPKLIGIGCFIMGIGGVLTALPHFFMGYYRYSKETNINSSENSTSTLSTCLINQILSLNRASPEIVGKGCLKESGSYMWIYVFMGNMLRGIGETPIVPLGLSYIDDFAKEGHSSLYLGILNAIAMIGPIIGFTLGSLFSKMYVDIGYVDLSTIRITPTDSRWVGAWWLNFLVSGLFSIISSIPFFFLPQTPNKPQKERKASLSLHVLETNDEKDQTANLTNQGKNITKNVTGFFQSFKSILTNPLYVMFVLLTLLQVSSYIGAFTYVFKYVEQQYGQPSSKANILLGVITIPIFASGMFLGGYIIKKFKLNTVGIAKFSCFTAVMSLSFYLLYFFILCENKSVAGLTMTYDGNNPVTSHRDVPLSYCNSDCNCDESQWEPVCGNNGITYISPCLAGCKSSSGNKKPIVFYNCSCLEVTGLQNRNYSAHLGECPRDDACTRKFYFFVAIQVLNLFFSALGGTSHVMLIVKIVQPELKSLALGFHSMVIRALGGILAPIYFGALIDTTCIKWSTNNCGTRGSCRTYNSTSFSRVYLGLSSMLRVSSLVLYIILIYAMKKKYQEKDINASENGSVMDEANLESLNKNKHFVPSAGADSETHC
Chain of P-glycoprotein (efflux transporter) (P08183 whole entry): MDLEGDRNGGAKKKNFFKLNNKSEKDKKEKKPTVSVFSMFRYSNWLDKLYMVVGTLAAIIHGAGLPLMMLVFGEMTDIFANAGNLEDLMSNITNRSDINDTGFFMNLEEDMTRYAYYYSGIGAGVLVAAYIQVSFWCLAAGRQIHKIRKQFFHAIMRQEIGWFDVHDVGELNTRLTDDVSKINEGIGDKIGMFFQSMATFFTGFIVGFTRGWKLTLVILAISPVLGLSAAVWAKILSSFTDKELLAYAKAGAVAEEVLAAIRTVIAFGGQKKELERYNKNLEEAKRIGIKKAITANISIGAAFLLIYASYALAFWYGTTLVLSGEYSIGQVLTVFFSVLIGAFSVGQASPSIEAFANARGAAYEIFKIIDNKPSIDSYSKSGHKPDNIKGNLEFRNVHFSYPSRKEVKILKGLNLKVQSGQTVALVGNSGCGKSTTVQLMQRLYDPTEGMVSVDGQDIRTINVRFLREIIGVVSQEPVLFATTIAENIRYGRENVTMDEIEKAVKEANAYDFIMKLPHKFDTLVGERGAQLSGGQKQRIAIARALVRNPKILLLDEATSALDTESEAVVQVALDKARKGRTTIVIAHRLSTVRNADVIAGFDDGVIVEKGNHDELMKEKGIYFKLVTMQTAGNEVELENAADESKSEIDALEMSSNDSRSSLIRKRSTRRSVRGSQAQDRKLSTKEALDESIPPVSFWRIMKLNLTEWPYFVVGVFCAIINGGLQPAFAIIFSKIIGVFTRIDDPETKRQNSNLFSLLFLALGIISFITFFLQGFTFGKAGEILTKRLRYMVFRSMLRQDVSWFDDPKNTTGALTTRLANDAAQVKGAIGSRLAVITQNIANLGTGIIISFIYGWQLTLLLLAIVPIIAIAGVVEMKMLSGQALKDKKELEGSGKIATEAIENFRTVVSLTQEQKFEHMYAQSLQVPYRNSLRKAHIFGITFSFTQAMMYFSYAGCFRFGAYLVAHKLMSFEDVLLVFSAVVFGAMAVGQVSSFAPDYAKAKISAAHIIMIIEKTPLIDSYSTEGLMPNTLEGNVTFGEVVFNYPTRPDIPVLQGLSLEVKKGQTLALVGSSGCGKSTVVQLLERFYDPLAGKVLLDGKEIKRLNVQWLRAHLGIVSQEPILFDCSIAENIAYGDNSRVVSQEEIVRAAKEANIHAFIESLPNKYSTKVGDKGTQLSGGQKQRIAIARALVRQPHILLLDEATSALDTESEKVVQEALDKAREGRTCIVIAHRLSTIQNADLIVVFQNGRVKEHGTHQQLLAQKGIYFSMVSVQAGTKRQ
Chain of OAT1 (Q4U2R8 whole entry): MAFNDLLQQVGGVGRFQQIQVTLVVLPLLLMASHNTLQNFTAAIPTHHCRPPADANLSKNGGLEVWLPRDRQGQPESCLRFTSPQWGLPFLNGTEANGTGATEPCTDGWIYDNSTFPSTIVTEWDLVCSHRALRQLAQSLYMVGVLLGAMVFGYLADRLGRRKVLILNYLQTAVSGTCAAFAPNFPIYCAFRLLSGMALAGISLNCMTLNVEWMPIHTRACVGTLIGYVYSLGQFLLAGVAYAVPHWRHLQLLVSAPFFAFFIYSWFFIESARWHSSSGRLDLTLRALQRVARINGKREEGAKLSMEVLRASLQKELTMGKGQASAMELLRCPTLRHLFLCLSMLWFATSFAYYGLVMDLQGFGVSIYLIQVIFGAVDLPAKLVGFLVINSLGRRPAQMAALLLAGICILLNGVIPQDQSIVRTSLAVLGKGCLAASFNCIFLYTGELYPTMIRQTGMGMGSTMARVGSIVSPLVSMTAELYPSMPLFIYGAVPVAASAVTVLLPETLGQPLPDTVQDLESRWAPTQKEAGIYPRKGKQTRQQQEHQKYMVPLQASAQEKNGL
Chain of BCRP (Q9UNQ0 whole entry): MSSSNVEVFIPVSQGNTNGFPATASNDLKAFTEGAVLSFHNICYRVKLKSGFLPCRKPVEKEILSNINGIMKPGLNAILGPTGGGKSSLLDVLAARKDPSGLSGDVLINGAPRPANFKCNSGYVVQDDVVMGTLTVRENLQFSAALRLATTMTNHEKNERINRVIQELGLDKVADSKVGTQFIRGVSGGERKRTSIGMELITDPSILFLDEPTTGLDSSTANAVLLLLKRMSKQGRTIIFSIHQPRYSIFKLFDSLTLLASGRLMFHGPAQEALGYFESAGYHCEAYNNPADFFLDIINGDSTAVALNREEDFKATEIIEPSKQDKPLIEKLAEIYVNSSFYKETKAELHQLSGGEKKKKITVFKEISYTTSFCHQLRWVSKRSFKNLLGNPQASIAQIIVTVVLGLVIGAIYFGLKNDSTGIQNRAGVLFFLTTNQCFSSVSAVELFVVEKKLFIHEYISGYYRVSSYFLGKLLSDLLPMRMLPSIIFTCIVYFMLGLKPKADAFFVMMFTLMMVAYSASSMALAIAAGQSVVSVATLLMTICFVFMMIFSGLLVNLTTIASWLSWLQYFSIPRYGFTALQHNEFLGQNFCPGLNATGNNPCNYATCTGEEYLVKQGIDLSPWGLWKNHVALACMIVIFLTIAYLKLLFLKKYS
Chain of OCT2 (O15244 whole entry): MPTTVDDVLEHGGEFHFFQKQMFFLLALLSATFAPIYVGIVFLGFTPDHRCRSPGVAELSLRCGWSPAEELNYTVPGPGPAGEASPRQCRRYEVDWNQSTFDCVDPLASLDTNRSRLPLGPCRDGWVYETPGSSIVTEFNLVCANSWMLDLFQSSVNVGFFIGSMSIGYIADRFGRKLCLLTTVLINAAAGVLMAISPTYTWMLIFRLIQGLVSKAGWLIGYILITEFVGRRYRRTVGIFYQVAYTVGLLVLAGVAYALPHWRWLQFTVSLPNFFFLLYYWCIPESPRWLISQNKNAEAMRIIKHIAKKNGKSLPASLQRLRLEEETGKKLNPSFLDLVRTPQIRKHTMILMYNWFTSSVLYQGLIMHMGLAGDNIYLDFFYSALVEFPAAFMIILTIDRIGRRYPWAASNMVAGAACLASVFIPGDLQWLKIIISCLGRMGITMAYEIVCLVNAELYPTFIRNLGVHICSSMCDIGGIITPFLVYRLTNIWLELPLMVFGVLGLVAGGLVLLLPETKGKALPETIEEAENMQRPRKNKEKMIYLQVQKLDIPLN

C[C@@H](O)[C@H](NC(=O)[C@@H]1CSSC[C@H](NC(=O)[C@@H](Cc2ccccc2)NC(=O)CN2CCN(CC(=O)[O-])CCN(CC(=O)[O-])CCN(CC(=O)[O-])CC2)C(=O)N[C@@H](Cc2ccc(O)cc2)C(=O)N[C@H](Cc2c[nH]c3ccccc23)C(=O)N[C@@H](CCCCN)C(=O)N[C@@H]([C@@H](C)O)C(=O)N1)C(=O)O.[177Lu+3] [Lutathera, ^177Lu-DOTA^0-Tyr^3-Octreotate]
Complete or partial tumor remission [1]: 39%
AML and MDS (progressive GEP-NETs; in vivo): < 1%
Hematologic grade 3/4 AEs (progressive GEP-NETs; in vivo): 9%
median OS from the start of re-treatment (progressive GEP-NETs; re-treatment, available in 194 patients): 26.78 months
DCR (progressive GEP-NETs; re-treatment, available in 347 patients): 71%
median PFS (progressive GEP-NETs; re-treatment, available in 414 patients): 12.52 months
inhibition or induction of human CYP450 enzymes (human CYP450 enzymes): absence of inhibition or significant induction
interaction with OATP1B3 (OATP1B3): absence of specific interaction
interaction with P-glycoprotein [2]: absence of specific interaction
interaction with BCRP (BCRP): absence of specific interaction
interaction with OAT1 (OAT1): absence of specific interaction
interaction with OCT2 (OCT2): absence of specific interaction
AEs leading to discontinuation of Any Treatment (Lutathera, Octreotide) [4]: 7 (4.8) n (%)
AEs leading to discontinuation of Lutathera [4]: 3 (2.0) n (%)
AEs leading to discontinuation of Octreotide [4]: 5 (3.4) n (%)
AEs leading to dose interruption of Any Treatment (Lutathera, Octreotide) [4]: 23 (15.6) n (%)
AEs leading to dose interruption of Lutathera [4]: 14 (9.5) n (%)
AEs leading to dose reduction of Any Treatment (Lutathera, Octreotide) [4]: 3 (2.0) n (%)
AEs leading to dose reduction of Lutathera [4]: 2 (1.4) n (%)
AEs leading to dose reduction of Octreotide [4]: 1 (0.7) n (%)
AEs requiring additional therapy [4]: 109 (74.1) n (%)
Adverse event: Abdominal pain [4]: 26 (17.7) n (%)
Adverse event: Alanine aminotransferase increased [4]: 16 (10.9) n (%)
Adverse event: Alopecia [4]: 22 (15.0) n (%)
Adverse event: Anaemia [4]: 29 (19.7) n (%)
Adverse event: Aspartate aminotransferase increased [4]: 16 (10.9) n (%)
Adverse event: Asthenia [4]: 28 (19.0) n (%)
Adverse event: COVID-19 [4]: 28 (19.0) n (%)
Adverse event: Constipation [4]: 15 (10.2) n (%)
Adverse event: Diarrhoea [4]: 38 (25.9) n (%)
Adverse event: Fatigue [4]: 29 (19.7) n (%)
Adverse event: Gamma-glutamyltransferase increased [4]: 12 (8.2) n (%)
Adverse event: Headache [4]: 16 (10.9) n (%)
Adverse event: Hyperglycaemia [4]: 20 (13.6) n (%)
Adverse event: Lymphocyte count decreased [4]: 16 (10.9) n (%)
Adverse event: Nausea [4]: 40 (27.2) n (%)
Adverse event: Oedema peripheral [4]: 17 (11.6) n (%)
Adverse event: Platelet count decreased [4]: 25 (17.0) n (%)
Adverse event: Vomiting [4]: 21 (14.3) n (%)
Adverse event: Weight increased [4]: 18 (12.2) n (%)
Adverse events [4]: 136 (92.5) n (%)
Adverse events Related to Amino Acids [4]: 22 (15.0) n (%)
Adverse events Related to Any Treatment [4]: 101 (68.7) n (%)
Adverse events Related to Lutathera [4]: 96 (65.3) n (%)
Adverse events Related to Octreotide [4]: 55 (37.4) n (%)
Adverse events: Number of subjects with at least one event [4]: 136 (92.5) n (%)
AEs leading to discontinuation of Any Treatment (Lutathera, Octreotide) [5]: 4 (2.7) n (%)
AEs leading to discontinuation of Lutathera [5]: 1 (0.7) n (%)
AEs leading to discontinuation of Octreotide [5]: 3 (2.0) n (%)
AEs leading to dose interruption of Any Treatment (Lutathera, Octreotide) [5]: 7 (4.8) n (%)
AEs leading to dose interruption of Lutathera [5]: 3 (2.0) n (%)
AEs leading to dose interruption of Octreotide [5]: 7 (4.8) n (%)
AEs leading to dose reduction of Any Treatment (Lutathera, Octreotide) [5]: 1 (0.7) n (%)
AEs leading to dose reduction of Lutathera [5]: 1 (0.7) n (%)
AEs leading to dose reduction of Octreotide [5]: 0 n (%)
AEs requiring additional therapy [5]: 28 (19.0) n (%)
Adverse event: Abdominal pain [5]: 4 (2.7) n (%)
Adverse event: Alanine aminotransferase increased [5]: 1 (0.7) n (%)
Adverse event: Alopecia [5]: 0 n (%)
Adverse event: Anaemia [5]: 1 (0.7) n (%)
Adverse event: Aspartate aminotransferase increased [5]: 1 (0.7) n (%)
Adverse event: Asthenia [5]: 1 (0.7) n (%)
Adverse event: COVID-19 [5]: 0 n (%)
Adverse event: Constipation [5]: 1 (0.7) n (%)
Adverse event: Decreased appetite [5]: 0 n (%)
Adverse event: Diarrhoea [5]: 2 (1.4) n (%)
Adverse event: Fatigue [5]: 0 n (%)
Adverse event: Gamma-glutamyltransferase increased [5]: 7 (4.8) n (%)
Adverse event: Headache [5]: 0 n (%)
Adverse event: Hyperglycaemia [5]: 0 n (%)
Adverse event: Lymphocyte count decreased [5]: 8 (5.4) n (%)
Adverse event: Nausea [5]: 1 (0.7) n (%)
Adverse event: Oedema peripheral [5]: 0 n (%)
Adverse event: Platelet count decreased [5]: 2 (1.4) n (%)
Adverse event: Vomiting [5]: 1 (0.7) n (%)
Adverse event: Weight increased [5]: 2 (1.4) n (%)
Adverse event: White blood cell count decreased [5]: 3 (2.0) n (%)
Adverse events [5]: 52 (35.4) n (%)
Adverse events Related to Amino Acids [5]: 1 (0.7) n (%)
Adverse events Related to Any Treatment [5]: 23 (15.6) n (%)
Adverse events Related to Lutathera [5]: 22 (15.0) n (%)
Adverse events Related to Octreotide [5]: 2 (1.4) n (%)
Adverse events: Number of subjects with at least one event [5]: 52 (35.4) n (%)
adverse event by preferred term: abdominal pain [6]: 17.7%
adverse event by preferred term: diarrhoea [6]: 25.9%
adverse event by preferred term: nausea [6]: 27.2%
safety findings in NETTER-2 (consistent with established safety profile): No new or unexpected safety findings
Incidence of AEs: Abdominal pain [7]: 26 (17.7) (%)
Incidence of AEs: Diarrhoea [7]: 38 (25.9) (%)
Incidence of AEs: Nausea [7]: 40 (27.2) (%)
AEs leading to discontinuation of Lutathera (randomized treatment period): 2.0% vs. NA
AEs leading to discontinuation of Lutathera and/or Octreotide (randomized treatment period): 4.8%
AEs leading to discontinuation of Octreotide (randomized treatment period): 3.4%
Any AEs (randomized treatment period): 92.5%
Grade 3/4 AE: GGT increased (randomized treatment period): 4.8%
Grade 3/4 AE: Lymphocyte count decreased (randomized treatment period): 5.4%
Grade 3/4 AE: abdominal pain (randomized treatment period): 2.7%
Grade 3/4 AE: small intestinal obstruction (randomized treatment period): 3.4%
Grade ≥3 AEs (randomized treatment period): 35.4%
Grade ≥3 AEs, Treatment-related (randomized treatment period): 15.6%
mean serum inhibin B levels (serum inhibin B): significant decrease
interaction with OATP1B1 (OATP1B1): absence of specific interaction
interaction with OAT3 (OAT3): absence of specific interaction
delayed bone marrow toxicity [3]: 1.5 to 2%
interaction with OCT1 (OCT1): absence of specific interaction
